# Experimental data from patent publication US20230174635A1.
# Target: BMP4/7 heterodimer (human) (UniProt P12644)
# Experiment: cell-based or functional assay
# Sequence of BMP4/7 heterodimer (human) (P12644 293-408, chain 1 of 2): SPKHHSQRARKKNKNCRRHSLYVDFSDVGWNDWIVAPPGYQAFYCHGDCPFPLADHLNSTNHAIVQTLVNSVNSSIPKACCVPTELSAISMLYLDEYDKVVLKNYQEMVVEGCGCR
# Sequence of BMP4/7 heterodimer (human) (P18075 293-431, chain 2 of 2, further chain): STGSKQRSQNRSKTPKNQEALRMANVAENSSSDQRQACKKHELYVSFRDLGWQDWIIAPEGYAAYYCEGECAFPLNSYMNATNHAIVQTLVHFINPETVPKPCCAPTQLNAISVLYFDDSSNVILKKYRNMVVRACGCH
substance,measurement,value
Gremlin 1 Full length (from UniProt O60565 25-184) (ligand),"IC50 (geometric mean, N=2), inhibition of BMP4/7 signalling, Hek-Id1 reporter gene assay",1.6 nM
